Here are results for two substances from article PMC6298664.

What is called pKd is the Kd on a negative log10 scale, so that one unit is a factor of ten. Low values mean a high Kd, high ones a low Kd.

pKd: −log10 of the molar value.

For assay [1], the target named is Spermidine N-acetyltransferase (SpeG) from Escherichia coli (Escherichia coli str. K-12 substr. MG1655) (UniProt P0A951). The experiment in a line: SPR; SpeG (46 uM) amine-coupled to a carboxymethyl dextran chip; RcsB constructs as analytes; no spermidine; 4 C; 10 mM HEPES pH 8.3, 100 mM sodium chloride; Reichert SR7500DC; one-to-one model. For orientation: Surface plasmon resonance follows binding to a sensor surface in real time, without labels.

For assay [2] the target is unchanged. Nature of the assay: SPR; SpeG (46 uM) amine-coupled; the surface exposed to 0.5 mM spermidine before the RcsB constructs were injected as analytes; 4 C; 10 mM HEPES pH 8.3, 100 mM sodium chloride; Reichert4SR; one-to-one model.

UniProt P0A951, sequence (P0A951 whole entry): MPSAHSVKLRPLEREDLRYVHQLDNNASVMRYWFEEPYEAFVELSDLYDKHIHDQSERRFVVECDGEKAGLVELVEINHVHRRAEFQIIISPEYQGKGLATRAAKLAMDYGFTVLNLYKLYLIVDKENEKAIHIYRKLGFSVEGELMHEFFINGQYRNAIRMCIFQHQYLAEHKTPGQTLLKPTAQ

On to “C-terminal DNA binding domain of RcsB (residues 128-216) (from UniProt P0DMC7 128-216) (domain or fragment)”, for which the negative-log Kd (pKd) in assay [1] was 4.17; in assay [2], 3.55.

“full-length RcsB from Escherichia coli (from UniProt P0DMC7 1-216) (natural protein)” showed a negative logarithm of the Kd (pKd) in assay [2] of 3.89.
